Reference: patent US20110195069A1

Tests used:
[1] = biological target: human factor D (purified from human serum, or as present in human serum/plasma) (human) (UniProt P00746); assay: ELISA: wells coated with purified human factor D, serially diluted MAb, HRP goat anti-mouse IgG (Fc), OD450
[2] = biological target: human factor D (purified from human serum, or as present in human serum/plasma) (human) (UniProt P00746); assay: cell-based or functional assay
[3] = biological target: baboon factor D (in baboon serum) (baboon); assay: cell-based or functional assay
[4] = biological target: dog factor D (in dog serum) (dog); assay: cell-based or functional assay; conditions: scale: times less effective than for human factor D
[5] = biological target: factor D/Pighu (pig-human factor D hybrid) (pig; human) (UniProt P00746); assay: ELISA: wells coated with recombinant factor D protein at 0.5 µg/ml, serially diluted MAb 166-32, HRP goat anti-mouse IgG (Fc), OD450
[6] = biological target: factor D/VDA (human factor D mutant V113E, D116E, A118P) (human) (UniProt P00746); assay: as above

Question: For MAb 166-32 (antibody), which EC50 (read off the curve) [1] is on record?
Answer: The EC50 (read off the curve) was 0.008 µg/mL.

Question: And the alternative pathway hemolytic activity of plasma from extracorporeal circuits of human whole blood (molar ratio MAb : factor D) [2]?
Answer: The alternative pathway hemolytic activity of plasma from extracorporeal circuits of human whole blood (molar ratio MAb : factor D) was 1.5.

Question: What about the inhibition of factor D dependent alternative pathway hemolysis of unsensitized rabbit RBCs (factor D depleted human serum supplemented with purified factor D) [2] of the same substance?
Answer: Its inhibition of factor D dependent alternative pathway hemolysis of unsensitized rabbit RBCs (factor D depleted human serum supplemented with purified factor D) is 0.3 µg/mL.

Question: And the molar ratio (MAb 166-32 to factor D) for inhibition of factor D dependent hemolysis (molar ratio MAb 166-32 : factor D) [2]?
Answer: The molar ratio (MAb 166-32 to factor D) for inhibition of factor D dependent hemolysis (molar ratio MAb 166-32 : factor D) was 0.5.

Question: And the inhibition of alternative complement hemolytic activity (rabbit red blood cells) of plasma samples from baboons given 5 mg/kg Mab 166-32, 18 hours after CPB [3]?
Answer: The inhibition of alternative complement hemolytic activity (rabbit red blood cells) of plasma samples from baboons given 5 mg/kg Mab 166-32, 18 hours after CPB was 79.3%.

Question: What about the neutralization of dog factor D in hemolytic assays, compared to human factor D [4] of the same substance?
Answer: The neutralization of dog factor D in hemolytic assays, compared to human factor D was > 10.

Question: What about the EC50 (read off the curve) [5] of the same substance?
Answer: The EC50 (read off the curve) was 0.02 µg/mL.

Question: And the EC50 (read off the curve) [6]?
Answer: The EC50 (read off the curve) was 0.02 µg/mL.
